Experimental data reported in PMC10682658, “Revisiting bacterial cytolethal distending toxin structure and function” (Frontiers in Cellular and Infection Microbiology, 2023).

Legend:
[1] = target: T1, NTA-labeled Cj-CdtB (polyhistidine-tagged Cj-CdtB labelled with NTA fluorescent dye) (Campylobacter jejuni, UniProt Q0PC57 1-265, NTA - Atto 647 N dye on the polyhistidine-tagged subunit); assay: MST; NTA dye-labeled polyhistidine-tagged subunit (0.1 μM) with unlabeled subunit without polyhistidine tag (0.02/0.04-20 μM), 1 h at 37°C, read at 37°C; Monolith NT.115; fraction bound fit to log [Cj-CDT subunit] vs response; KD of A + B* called apparent; details: both partners purified
T1 construct: source: recombinant, generated and purified as previously described (Eshraghi et al., 2010)

[2] = target: T2, NTA-labeled Cj-CdtA (polyhistidine-tagged Cj-CdtA labelled with NTA fluorescent dye) (Campylobacter jejuni, UniProt A1VXG4 20-268, NTA - Atto 647 N dye on the polyhistidine-tagged subunit); assay: as above; details: both partners purified
T2 construct: source: recombinant, generated and purified as previously described (Eshraghi et al., 2010)
T2 sequence: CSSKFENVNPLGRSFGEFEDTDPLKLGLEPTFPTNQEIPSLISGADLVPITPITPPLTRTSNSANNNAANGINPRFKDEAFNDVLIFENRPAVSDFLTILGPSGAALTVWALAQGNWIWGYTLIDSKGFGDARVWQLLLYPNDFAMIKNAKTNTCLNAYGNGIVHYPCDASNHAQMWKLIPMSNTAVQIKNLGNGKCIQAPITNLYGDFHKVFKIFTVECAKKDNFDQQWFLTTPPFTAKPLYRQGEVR

Binder	Kd [1]	first concentration of titrant yielding detectable signal above background [1]	Kd [2]	first concentration of titrant yielding detectable signal above background [2]
unlabeled Cj-CdtA with the polyhistidine tag removed (natural protein, source: recombinant, generated and purified as previously described (Eshraghi et al., 2010); polyhistidine removed with biotinylated thrombin) CSSKFENVNPLGRSFGEFEDTDPLKLGLEPTFPTNQEIPSLISGADLVPITPITPPLTRTSNSANNNAANGINPRFKDEAFNDVLIFENRPAVSDFLTILGPSGAALTVWALAQGNWIWGYTLIDSKGFGDARVWQLLLYPNDFAMIKNAKTNTCLNAYGNGIVHYPCDASNHAQMWKLIPMSNTAVQIKNLGNGKCIQAPITNLYGDFHKVFKIFTVECAKKDNFDQQWFLTTPPFTAKPLYRQGEVR	> 20000 nM	2 µM		
unlabeled Cj-CdtC with the polyhistidine tag removed (natural protein, source: recombinant, generated and purified as previously described (Eshraghi et al., 2010); polyhistidine removed with biotinylated thrombin) TPTGDLKDFTEMVSIRSLETGIFLSAFRDTSKDPIDQNWNIKEIVLSDELKQKDKLADELPFGYVQFTNPKESDLCLAILEDGTFGAKSCQDDLKDGKLETVFSIMPTTTSAVQIRSLVLESDECIVTFFNPNIPIQKRFGIAPCTLDPIFFAEVNELMIITPPLTAATPLE	480 ± 100 nM	0.15 µM	650 ± 100 nM	0.31 µM
